Biological target: T1, rat TLR7-Flag, expressed in HEK293 cells (rat, UniProt P58681 27-1050 (mouse entry))
T1 construct: not shown: Flag tag
T1 chain: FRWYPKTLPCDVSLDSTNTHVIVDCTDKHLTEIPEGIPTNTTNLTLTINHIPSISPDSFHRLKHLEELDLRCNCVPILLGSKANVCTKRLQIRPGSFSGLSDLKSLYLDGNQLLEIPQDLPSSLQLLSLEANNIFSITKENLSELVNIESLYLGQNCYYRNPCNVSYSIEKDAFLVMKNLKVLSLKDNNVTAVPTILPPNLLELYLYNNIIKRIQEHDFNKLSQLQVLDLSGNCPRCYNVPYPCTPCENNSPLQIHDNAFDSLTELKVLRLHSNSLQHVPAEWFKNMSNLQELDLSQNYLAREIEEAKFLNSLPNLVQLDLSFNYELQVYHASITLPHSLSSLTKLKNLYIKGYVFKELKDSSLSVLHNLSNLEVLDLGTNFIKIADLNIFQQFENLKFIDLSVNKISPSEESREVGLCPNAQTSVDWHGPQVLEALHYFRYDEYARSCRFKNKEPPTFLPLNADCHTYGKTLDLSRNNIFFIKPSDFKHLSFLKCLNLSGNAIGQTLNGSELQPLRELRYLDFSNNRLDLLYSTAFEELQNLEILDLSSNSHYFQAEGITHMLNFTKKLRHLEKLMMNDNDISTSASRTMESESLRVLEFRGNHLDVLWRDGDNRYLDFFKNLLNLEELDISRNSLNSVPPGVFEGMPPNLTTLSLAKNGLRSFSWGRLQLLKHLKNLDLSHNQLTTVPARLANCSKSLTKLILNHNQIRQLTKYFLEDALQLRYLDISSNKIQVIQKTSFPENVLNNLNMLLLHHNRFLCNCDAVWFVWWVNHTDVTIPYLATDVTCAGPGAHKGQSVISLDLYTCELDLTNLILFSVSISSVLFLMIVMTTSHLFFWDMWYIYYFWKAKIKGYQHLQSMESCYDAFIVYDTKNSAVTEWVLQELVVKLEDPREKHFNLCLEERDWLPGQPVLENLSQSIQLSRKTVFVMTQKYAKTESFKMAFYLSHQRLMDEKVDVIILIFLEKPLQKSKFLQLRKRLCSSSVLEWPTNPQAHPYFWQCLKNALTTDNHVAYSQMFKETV
Assay: flow cytometry on fixed and permeabilised HEK293 cells expressing rat TLR7-Flag
Source text: The HEK293 cells expressing human TLR7 (variant 1)-Flag prepared in 8)-1, the HEK293 cells expressing human TLR7 (variant 2)-Flag prepared in 8)-2, the HEK293 cells expressing monkey TLR7-Flag prepared in 8)-3, the HEK293 cells expressing mouse TLR7-Flag prepared in 8)-4, and the HEK293 cells expressing rat TLR7-Flag prepared in 8)-5 were immobilized/subjected to membrane permeation with a Fixation and Permeabilization Solution (Becton, Dickinson and Company) and thereafter stained using huAT01_H3L2_IgG1LALA, which is one of the humanized anti-human TLR7 antibodies, and ALEXA FLUOR® 647 AffiniPure Goat anti-human IgG+IgM (H+L) (Jackson ImmunoResearch Inc.), which is the secondary antibody.
The binding of the humanized anti-human TLR7 antibody to human TLR7 was detected based on flow cytometry (Miltenyi Biotec K.K.), and the data was analyzed using software (Flowjo) which analyzes the data of flow cytometry.

- binding result: no binding
B1: huAT01_H3L2_IgG1LALA antibody (antibody, V domains shown)
VH: QVQLVQSGAEVKKPGASVKVSCKASGYTFTNNWLHWVRQAPGQGLEWMGDIYPSNGRTNYAQKFQGRVTLTVDKSTSTAYMELSSLRSEDTAVYFCARERGYFDYWGQGTLVTVSS
VL: DIQMTQSPSSLSASVGDRVTITCKASQDINKYIAWYQQKPGKAPKLLIHYTSTLQPGIPSRFSGSGSGRDYTLTISSLQPEDFATYYCLQYDYLLTFGQGTKVEIKR
notes: Humanized AT01; heavy huAT01_H3_IgG1LALA, light huAT01_L2
